Results reported in the DeepSol protein solubility set.

Experiment: soluble on expression in E. coli; label from the status in PepcDB or PDB records

| Sequence | soluble on expression in E. coli |
| --- | --- |
| MSLGNARMYEALRDYGDRFDTVGIFTFEVDETGTITETGTSISSMLPYIQKWPHIKWLLTIMNHGIANIFTALRNNENGAKDKFLTEIIRIMNKYPWCAGVDIDLERGGGYENKDAANALFRDIYNTVKSYDATKLVNICLPGMIGVQGSVGGENWCVYADLNDYCDTAAIMSYGMAWAGSAPGPVSPRDWLEGIYDYAVSVMSPDKIFMGLPAYGWNWRIHDTPENLGITYRGVSNTYYAAKYWMTGVYNFTGDAPPQPFIPIVAYWDDYNKVPWALPHVYDYMEGWDAVSWEYPLLKGVYNRRRYLTSYGKEQKAEFGTIYIDRNGVPDEYEGNVIITDEMTSLGDAQASAEYRFEIREAGYYDIAVQLCFPYWDKNAIIVSLDGISKTFSENEGHHHHHH | not soluble |
| MSLGPTRANPKAVKPFIEQKEKKMVLVVDWHTKTLAATMNGRRPQDEDAMVVHGPLKNFPNARLKAIFDGHGGYSVSRRCASVAYGYLGAMKNLSQESFRSACLQMDADMRADTLKGGSTGLMVIIEKVDDPESRDGIYFNVHAANVGDSRGLILHSDGTYTIMSKDHKPTAEVERERIKRAGGFLLRRLGVWRVDGRLALSRAFGDFALKDRLDMKPNEQKVVALPDVNVFKAKPGDIILMGCDELANTLKNIQWDGGTVCSRRPRGRRSRDNVSIMLTKLVKRPIRNTQVKRFDYSFTGERYVLPSEEGHHHHHH | not soluble |
| MSLGQLLSHPIEEKELDYKSYTNLTYCIGSMQGYRMTMEDAHDVKINEHENLAVFGIFDGHGGKNCSQYLAEHLPKLVFTKLNKIASAVYLKQVKDIDLKDVFDILKNSFFKIDKDLSHHANMVNCGSTATVVTIIANYIVVANTGDSRCIVSRNGHAKPLSFDHKPSNMGERVRIENSNGYILNNRINEVLALSRAFGDFKFKLPYLSSSRNKYIKENQKLLGDKLITLPPELFQVTVEPDIMLYDMQKLDSPEFLVIACDGVWDCFKNGQLVKLIRDKLSLGWRLNKIVEYILNDSLTMANNYTGIGFDNMTLIIVAIHKEGHHHHHH | soluble |
| MSLGQSKVVYLNTHSTSSAGVETLNELCRLAEPGLETMLRQALDQVDDALFDRAERAANNADQALFFATMRQVRMSRRMVVQTFTQEMESAFSRLTQPHSSQTQEPAATAREDYSLELMDETVVEERVAAETVVGKLRTRSVFPLAQLQSRLDYLVVERKVDERNNPLDPRQVVDAFAVAMERLNIEIQPKLIIFKLFEKQALRQLPALYEAANRLLIDAGIMPKLRATGEPLVANEDRVQAPESGHQTSVDSEADTLTGNGSATLELLQGLLAQARGGNQPVPSTARCAGGASHSDLVQALSALQQQPRFANNETGGAQPFAAEELKALLGSALFVAPGGLPQPIERAADDTIDIVSMLFDIILDDSRLAPSIKAVIARLQIPVLKVAMLDRSFFNSRQHPARALINELAHAAMGWVEPENPSADPLYRKMNEVMNRILEGFEEDIVLFEQVLQDFRLFLEQERERAQTVEARTCQAAEGKAKVEDARERVQAEIERRLRGGSVPSVVHQILEGPWFKVLFITCVKDGPQGAVWESQLELMDRLIWSVQPNADPERRQDVLARIPALLNDLREGLNAILYNPFEMTRLFEELEAEHIRCLSAPPADLSDNTVNVEQGSEDESAFAQEGSSYDCDEPSVAAEPPQLTEEQCLREECLQRLVRVDLGTWFEFSTDAGRQLRAKLSARLNGGRRLIFVNRAGFKLADKKTEEVAADLSSGKAFILDHNMLFDKALEQVITNLRDLRVEQAEGHHHHHH | not soluble |
| MSLGRNEPVIGITPSFDYNENKMYINNIYCEAIILSGGMPVLLPVTEDEGLLSQMVEEFDGFLLSGGPDVDAVHWGEWNYSYNGEISPHRDKMELFIAKEAVAKDKPIFGICRGIQVLNVALGGTLYQDIYSQNKEKRLIKHSQNAPRWYPVHKVMLKAGSKVRNAHGAESIAVNSFHHQAVREPAPDFIVTGTSEDGIIEAIEHKNCKFAVGVQWHPEHMWKRDLSFLNIFKYFVSSCLEGHHHHHH | soluble |
| MSLGRPAPFKVGALNSITGAGGTYGPGMLEAIKIGIAEVNAAGGAAGRELKLYAEDDQTRPDAAVLAARKLVDIQHVDAMIGIWSSAVQLATLPITNAAGILSFNTCGAPEIRTEDKRDLVFQFYASNAIIGAAFAAIGQRLGYKRAAVLGYNNATMSVQANHFKAAWEKKGNQIVSSAIYEPNQATYRTEVEKAVAAKPDVIVLSSYTPDATILLKEWYQTGYECKFIMPGYSATPALIKALGPDVMRNIVSTANVPASDNQAYKAFVEKFQAVTKSPPEMFAAAAYDMVITLALAIEAAGPDAKPADLSALVRQVSNPPGQKVSSFVQGRDLLRQKAKIDFDGASSSLDFDANGDTVPDFGIYEFDGKAFALKDVVPGATEGHHHHHH | soluble |
| MSLGSGTSTQHHFAFQNAERAFKAAALIQRWYRRYVARLEMRRRCTWSIFQSIEYAGQQDQVKLHDFFSYLMDHFIPSSHNDRDFLTRIFTEDRFAQDSEMKKCSDYESIEVPDSYTGPRLSFPLLPDHATALVEAFRLKQQLHARYVLNLLYETKKHLVQLPNINRVSTCYSEEITVCGDLHGQLDDLIFIFYKNGLPSPERSYVFNGDFVDRGKDSVEILMILFAFMLVYPKEFHLNRGNHEDHMVNLRYGFTKEVMNKYKVHGKEILRTLQDVFCWLPLATLIDEKVLILHGGVSDITDLELLDKIERSKIVSTMRSGTQEEWRQVVDILWSDPMAQEGCKANTIRGGGCYFGPDVTQQLLQKYNMQFLIRSHECKPEGYEFCHNRKVLTIFSASNYYEVGSNRGAYVKLGPALTPHIVQYQANKVTHTLTMRQREGHHHHHH | not soluble |
| MSLGSQGSGLEQSSFQWSPSGRRTGSLYCRVGIGFHLQIYPDGKVNGSHEANMLSVLEIFAVSQGIVGIRGVFSNKFLAMSKKGKLHASAKFTDDCKFRERFQENSYNTYASAIHRTEKTGREWYVALNKRGKAKRGCSPRVKPQHISTHFLPRFKQSEQPELSFTVTVPEKEGHHHHHH | not soluble |
| MSLGTNKDYIEYVHKVYDYLHTIPEKGFEEYKTSEFVLKELEKMGFENINKGVAGTGIIVTIDSKKEGPVFAIRADMDALEFIIDGEKKMIHACGHDGHTSMLLTAAKLIKERNLVKRGKLKILFQPGEEKLYGALRVIDSGLLDDVEEMVGMHLRPGQDCRLGKAIPAMYHCASCIMEFTIKGITCHGSKPHLGVNAVDAVCLAVNAINAIRVNPAIPNSIKVTNISVKGETYNNIPDEAFMALDIRAESNDIIEELKEKAIHAAKTAVSSINAEAVLISKDGVPAAEFDEELVNLAEETIKDVLGADASIGIFKNSGGEDFHYYTQKLKCKTTYIGLGADATPGFHNPNVTFDTKALEYGVDIWCRLVEKRLGEGHHHHHH | soluble |
| MSLGTVHARSLDPLPMQGPELGVQADDMDLGEPEREEKQEVLENKDVVVQHVHIDGLGRTKEDILTYEIADVFHAKNLIDVMKKSHEARQKLLRLGIFRHVEVVIDTAEGADALPNGLDVTFEVRELRRMTGSYNTMVGNNEGSMVLGIKLPNVLGRAEKLTFQFSYGTKETSYGLSFFKPQPGHFERNFSLNLYKVTGQFPWSSLRETDRGVSAEISFPIWRTSHTLKWEGVWRELGCLARTASFAVREESGHSLKSSLAHAMVIDTRNSTILPRKGALLKINQELAGYTGGDVSFLKEDFEIQLNKTLFWDSVLSTSLWGGMLLPLGEKASSIADRFYLGGPTSVRGFSMYSIGPQSEGDYLGGEAYWAGGVHLYTPLPFRPGRGGFGDLFRTHFFLNAGNLCNLNYGEGPRAHLSKLAECIRWSYGAGIVLRLGNIARLELNYCIPMGVQSGDRICDGVQFGAGIRFLEGHHHHHH | not soluble |
| MSLHDYCLPCPTSLSGIAEVNPMSKPLVRWPINPLRTAVIVVDMQKVFCEPTGALYVKSTADIVQPIQKLLQAARAAQVMVIYLRHIVRGDGSDTGRMRDLYPNVDQILARHDPDVEVIEALAPQSDDVIVDKLFYSGFHNTDLDTVLRARDVDTIIVCGTVTNVCCETTIRDGVHREYKVIALSDANAAMDYPDVGFGAVSAADVQRISLTTIAYEFGEVTTTAEVIRREGHHHHHH | not soluble |
| MSLHGKLIQFHKFGNPKDVLQVEYKNIEPLKDNEVFVRMLVRPINPSDLIPITGAYAHRIPLPNIPGYEGVGIVENVGAFVSRELIGKRVLPLRGEGTWQEYVKTSADFVVPIPDSIDDFTAAQMYINPLTAWVTCTETLNLQRNDVLLVNACGSAIGHLFAQLSQILNFRLIAVTRNNKHTEELLRLGAAYVIDTSTAPLYETVMELTNGIGADAAIDSIGGPDGNELAFSLRPNGHFLTIGLLSGIQVNWAEIVTKAKVHANIFHLRHWNDEVSPYKWQETFRHLIRLVENEQLRFMKVHSTYELADVKAAVDVVQSAEKTKGKVFLTSYEGHHHHHH | soluble |
| MSLHKKDIIRLLETIAVYMELKGDNPFKVSAFRKAAAALEQDDRSLSEMDDMMSLSGIGKGTYSVIKEYIDEGKSSTLESLQKEVPEGLVPLLKLPGLGGKKIAKLYKELGVHDAESLKEACEQQKVQGLAGFGKKSEEKILQALGEAGKQPERFPIGYALRIAREIEEHLSQFTHIIKFSRAGSLRRARETVKDLDYIIATDHPAEVREQLLELPNIKSVIASGDTKVSVILSFEYETSVDFRLVTEEQFPTTLHHFTGSKDHNIKMRQIAKERGERISEYGVETVETGEIKTFPSEREFYAHFGLPLIPPEIRESEGHHHHHH | soluble |
| MSLHLSNVILHQLCKNDQDELVVKLRPASLENDASTENLVAELHRVFHSKAGKGFGSFQSDSEFQFWLQEMRKGERDFYDFSQISANRLKEELIKYPFADEGILVFAEYQSLATDYLFIGILPMNQSLKVTEGLDISATDYLDITKMDIAARIDLSSYETDKESNRYLQYIKGRVGRKVADFFLDFLQADIGLDTKQQNLVLMQAVDDFCADSKLEKQEVNEYKKQVYNYCNEQIKSGEEVQISELSGELPPSQDGTSFMDFTKEQGYELEESFPGDRSTVRKLTKYVGAGGGLNISFDSLLLGERIFYDPETDTLTIKGTPPNLKDQLSRNLEHHHHHH | soluble |
| MSLHNVVISGTGLFTPANSISNEELVESFNTYVHQFNSDNAAAIERGEVQALTESNAAFIEKASGIKSRFVMDKDGILDPQRMAPRLPERSNDEWSVLCQMAVAAAEQALQRAGKTAADIDGVIVACSNLQRAYPAIAIEVQAALGIQGFGFDMNVACSSATFGIQAACNSVQLGQARAILMVNPEVCTGHLNFRDRDSHFIFGDAATAVVIERADLATSEHQFDIVSTKLLTQFSNNIRNNFGFLNRAAEEGIGARDKLFVQEGRKVFRDVCPMVAELIAAHLEENQLNVSDVKRFWLHQANLSMNHLIVKKLLCREASVEEAPVILDTYANTSSAGSVIAFHKYQDDLASGSLAVLSSFGAGYSIGSVLLRKREGHHHHHH | soluble |
| MSLHVKVIVFGGSGFLGSHLVNRLDADEMVYFSLEKGNSVTRKDAKWVSGDVTDYSKVAEAMKDVDVAIFAVEDWNADEKRNREILLDGIKNVVNAVKANNTEQKVVSFSIINHPSYPLEFFRTKRLVEDNTRVLKNGLVVRLSFLFGEGDHFTDRFRKLSERVGHLSPEGNLAPVYVDDVVKVVNSILKREGVYDICSNDNLPLIKIVNYIRKMNGKKEIGETKLEKAISAVVETGLFAEYEAHLLFQDYYRETNILDRYVKDPLSYLDFLRGISVTHTTEGHHHHHH | soluble |
| MSLHVLTLAIARAASIDELALAANKQRELVESLMSRGVRTRFVMELIAAVNEQIIEKAFELVVPPALHDQCCLVVLGSEGRGEQILKTDQDNALIIQDGLEWHQCQPIMETLTHTLLQLGYPLCPGKVMVNNPKWVRSQSDWKRTLTDWVKAARPEQVMDIAIFADAHAVAGNRALLAPVKAHLQHLMAGQELILAEFTRPALNFSVPLTLFGNVKSSKQGIDIKQGGIFPIVHGVRALSLEHAIDANNTFDRIEALVKKRVLEQETGDNLSEAFKLFLKLRLAQQLGNQHSTNQLDFKQLDRTERDLLRHSLHVVKKFKQWLGYHYQIRDEGHHHHHH | soluble |
